T1: GST-RGL2 (Arabidopsis, UniProt Q8GXW1 1-547)
T1 construct: RGL2 of Arabidopsis; coding region cloned into pGEX-4T-1; source: E. coli Rosetta (DE3), purified (Glutathione Sepharose beads); not shown: GST, N-terminal, kept
T1 sequence (looked up): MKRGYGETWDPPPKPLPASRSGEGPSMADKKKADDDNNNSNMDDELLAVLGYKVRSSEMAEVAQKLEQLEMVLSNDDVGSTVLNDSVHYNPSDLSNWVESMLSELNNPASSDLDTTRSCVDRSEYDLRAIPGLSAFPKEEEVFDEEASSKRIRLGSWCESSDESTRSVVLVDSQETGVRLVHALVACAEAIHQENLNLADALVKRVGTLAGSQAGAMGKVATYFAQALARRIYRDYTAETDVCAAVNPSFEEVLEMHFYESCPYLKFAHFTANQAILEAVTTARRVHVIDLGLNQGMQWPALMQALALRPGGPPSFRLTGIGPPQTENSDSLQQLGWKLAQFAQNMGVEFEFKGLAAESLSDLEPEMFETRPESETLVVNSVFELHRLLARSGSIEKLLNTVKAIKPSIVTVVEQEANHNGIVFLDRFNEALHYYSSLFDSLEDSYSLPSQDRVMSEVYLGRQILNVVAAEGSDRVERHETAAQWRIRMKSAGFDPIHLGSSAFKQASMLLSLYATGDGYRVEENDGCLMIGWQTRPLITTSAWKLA

B1: His-NF-YC3 (natural protein, Arabidopsis, UniProt Q9ZVL3 1-217, looked up)
chain: MDQQGQSSAMNYGSNPYQTNAMTTTPTGSDHPAYHQIHQQQQQQLTQQLQSFWETQFKEIEKTTDFKNHSLPLARIKKIMKADEDVRMISAEAPVVFARACEMFILELTLRSWNHTEENKRRTLQKNDIAAAVTRTDIFDFLVDIVPREDLRDEVLGGVGAEAATAAGYPYGYLPPGTAPIGNPGMVMGNPGAYPPNPYMGQPMWQQPGPEQQDPDN
notes: NF-YC3 of Arabidopsis; coding region cloned into pQE30; source: E. coli Rosetta (DE3), purified (Ni-NTA agarose); not shown: His, N-terminal, kept
B2: His-NF-YC4 (natural protein, Arabidopsis, UniProt Q9FMV5 1-250, looked up)
chain: MDNNNNNNNQQPPPTSVYPPGSAVTTVIPPPPSGSASIVTGGGATYHHLLQQQQQQLQMFWTYQRQEIEQVNDFKNHQLPLARIKKIMKADEDVRMISAEAPILFAKACELFILELTIRSWLHAEENKRRTLQKNDIAAAITRTDIFDFLVDIVPREEIKEEEDAASALGGGGMVAPAASGVPYYYPPMGQPAVPGGMMIGRPAMDPSGVYAQPPSQAWQSVWQNSAGGGDDVSYGSGGSSGHGNLDSQG
notes: NF-YC4 of Arabidopsis; coding region cloned into pQE30; source: E. coli Rosetta (DE3), purified (Ni-NTA agarose); not shown: His, N-terminal, kept
B3: His-NF-YC9 (natural protein, Arabidopsis, UniProt Q8L4B2 1-231, looked up)
chain: MDQQDHGQSGAMNYGTNPYQTNPMSTTAATVAGGAAQPGQLAFHQIHQQQQQQQLAQQLQAFWENQFKEIEKTTDFKNHSLPLARIKKIMKADEDVRMISAEAPVVFARACEMFILELTLRSWNHTEENKRRTLQKNDIAAAVTRTDIFDFLVDIVPREDLRDEVLGSIPRGTVPEAAAAGYPYGYLPAGTAPIGNPGMVMGNPGGAYPPNPYMGQPMWQQQAPDQPDQEN
notes: NF-YC9 of Arabidopsis; coding region cloned into pQE30; source: E. coli Rosetta (DE3), purified (Ni-NTA agarose); not shown: His, N-terminal, kept

Target: T1, GST-RGL2
Assay: pull-down; 2 ug of His-NF-YCs incubated with GST or GST-RGL2 immobilised on Glutathione Sepharose beads; 50 mM Tris-HCl pH 8.0, 100 mM NaCl, 1 mM EDTA; 4 °C, 2 h; blots with anti-His and anti-GST
Conditions: both partners purified

Row | Binder | binding result
1 | B1 | binds
2 | B2 | binds
3 | B3 | binds
